Test results reported in patent US20110256153A1 (IMMUNOGEN, published 2011).

How the values were obtained:
hCD37-M45 = target: T1, hCD37-M45 (human/murine chimera, UniProt P11049 1-281); assay: flow cytometry, 300-19 cells expressing hCD37-M45
T1 construct: stably expressed on 300-19 cells; also called hCD37-M45 variant
T1 chain: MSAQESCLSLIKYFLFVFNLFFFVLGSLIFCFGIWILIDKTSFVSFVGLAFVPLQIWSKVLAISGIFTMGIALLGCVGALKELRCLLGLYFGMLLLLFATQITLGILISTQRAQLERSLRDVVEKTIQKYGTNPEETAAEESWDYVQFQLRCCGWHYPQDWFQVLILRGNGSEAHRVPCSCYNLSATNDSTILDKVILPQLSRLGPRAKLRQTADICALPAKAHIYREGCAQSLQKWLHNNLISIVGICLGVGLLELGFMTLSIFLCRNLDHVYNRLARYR
Description: (§1) Binding specificity was tested by flow cytometry using purified antibodies. […] All murine antibodies were incubated for 3 h with either CD37-expressing 300-19 cells or the non-transfected 300-19 cells (1×10⁵ cells per sample) in 100 μL FACS buffer (RPMI-1640 medium supplemented with 2% normal goat serum). Then, the cells were pelleted, washed, and incubated for 1 h with 100 μL of FITC-conjugated goat anti-mouse IgG-antibody (Jackson Laboratory, 6 μg/mL in FACS buffer). The cells were pelleted again, washed with FACS buffer and resuspended in 200 μL of PBS containing 1% formaldehyde. Samples were acquired using a FACSCalibur flow cytometer with the HTS multiwell sampler or a FACS array flow cytometer and analyzed using CellQuest Pro (all from BD Biosciences, San Diego, US).
(§2) Binding of various CD37 antibodies to cells expressing human CD37 wildtype and variants was analyzed by flow cytometry using 1.5 μg/mL of each antibody. The isolated antibodies of this invention were compared to commercially available CD37 antibody WR17, as well as the TRU-016 SMIP. […] Likewise, all antibodies tested bound the hCD37-M3 variant (FIG. 18B). In contrast, the isolated antibodies of this invention bound the hCD37-M1 variant, while TRU-016 and WR17 were unable to bind hCD37-M1 variant (FIG. 19A). The CD37-50 and CD37-51 antibodies and TRU-016 were also able to bind the hCD37-M45 variant. […] In contrast, the CD37-3, CD37-12, CD37-38, CD37-56 and CD37-57 antibodies require at least one of the AA residues in the hCD37-M45 variant that were changed to the corresponding murine AA residues for binding to the CD37 antigen.

human CD37 [1] = target: T2, human CD37 (human, UniProt P11049 1-278); assay: flow cytometry titration on Ramos cells; apparent Kd
T2 construct: Tetraspanin antigen; Expressed on 300-19 cells transfected with pSRa-CD37 (entire CDS) or endogenous on WSU-DLCL-2, BJAB and Ramos lymphoma cells; also called CD37 antigen; human CD37 wildtype
T2 sequence: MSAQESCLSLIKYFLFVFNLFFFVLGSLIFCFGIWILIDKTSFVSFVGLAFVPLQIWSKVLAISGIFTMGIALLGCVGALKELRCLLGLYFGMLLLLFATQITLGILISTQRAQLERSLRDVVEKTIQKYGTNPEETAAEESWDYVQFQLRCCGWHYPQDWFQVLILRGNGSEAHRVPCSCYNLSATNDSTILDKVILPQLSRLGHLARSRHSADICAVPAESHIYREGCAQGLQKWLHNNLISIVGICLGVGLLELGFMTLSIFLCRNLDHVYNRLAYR
Description: as §1
The chimeric antibodies chCD37-3 and chCD37-12 were assayed for their binding affinity to Ramos cells in comparison to their murine counterparts. Flow cytometry binding assays using Ramos cells and muCD37-3, chCD37-3, muCD37-12 and chCD37-12 antibodies were carried out and analyzed as described in Example 2 using secondary FITC-conjugated goat-anti-murine and -anti-human antibodies. FIG. 9A depicts the dose-response curves generated by non-linear regression for each antibody. The value for the apparent dissociation constant (Kd) of each antibody was calculated using GraphPad Prism v4 (GraphPad software, San Diego, Calif.).

hCD37-M1 = target: T3, hCD37-M1 (human/murine chimera, UniProt P11049 1-281); assay: flow cytometry, 300-19 cells expressing hCD37-M1, 1.5 µg/mL antibody
T3 construct: stably expressed on 300-19 cells; also called hCD37-M1 variant
T3 chain: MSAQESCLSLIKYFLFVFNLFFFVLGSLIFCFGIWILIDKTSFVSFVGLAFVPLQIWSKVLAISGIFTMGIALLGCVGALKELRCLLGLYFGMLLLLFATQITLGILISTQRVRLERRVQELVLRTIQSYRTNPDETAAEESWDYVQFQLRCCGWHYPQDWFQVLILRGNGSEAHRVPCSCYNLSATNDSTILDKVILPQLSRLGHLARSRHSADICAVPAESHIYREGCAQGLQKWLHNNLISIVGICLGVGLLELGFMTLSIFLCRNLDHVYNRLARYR
Description: as §1, §2

human CD37 [2] = target: T2, human CD37; assay: flow cytometry titration on WSU-DLCL-2 cells; EC50 taken as apparent Kd
Description: as §1
To verify that the antibodies can also bind to endogenously expressed CD37, binding experiments were performed with CD37-positive WSU-DLCL-2 lymphoma cells and the muCD37-3, muCD37-12, muCD37-8, muCD37-10 or muCD37-14 antibodies. WSU-DLCL-2 cells were incubated with varying concentrations of murine antibodies and processed as described above for flow cytometry analysis. Data analysis was performed using CellQuest Pro (BD Biosciences, San Diego, US) and for each sample the mean fluorescence intensity for FL1 (MFI) was exported and plotted against the antibody concentration in a semi-log plot (FIG. 3). […]

human CD37 [3] = target: T2, human CD37; assay: competition flow cytometry on BJAB cells; competitor PE-labeled muCD37-3 (1 nM)
Description: Flow cytometry binding assays using BJAB cells and a competitive binding format were used to evaluate binding affinity of chimeric and humanized versions of CD37-3. BJAB cells were incubated with a 1 nM concentration of PE-labeled muCD37-3 antibody and competition was measured by adding varying amounts of muCD37-3, chCD37-3, huCD37-3v1.0 or huCD37-3v1.01. The samples were incubated for 3 hrs at 4° C. Then, the cells were pelleted, washed with FACS buffer and resuspended in 200 μL of PBS containing 1% formaldehyde. Samples were acquired using a FACSCalibur flow cytometer with the HTS multiwell sampler and analyzed using CellQuest Pro (all from BD Biosciences, San Diego, US). The resulting mean PE fluorescence was plotted against the amount of competing antibody used in a semi-log plot. FIG. 9B depicts the dose-response curves generated by non-linear regression for each antibody. The value for the apparent dissociation constant (Kd) of each antibody was calculated using GraphPad Prism v4 (GraphPad software, San Diego, Calif.).

- binding result (hCD37-M45): no binding (tested: 1.5 µg/mL)
- Kd (human CD37 [1]): 0.4 nM
- binding result (hCD37-M1): binds
- Kd (human CD37 [2]): 0.52 nM
- EC50 (human CD37 [3]): 0.8 nM
B1: muCD37-3 (antibody, mouse IgG2a, kappa)
heavy: QVQVKESGPGLVAPSQSLSITCTVSGFSLTTSGVSWVRQPPGKGLEWLGVIWGDGSTNYHSALKSRLSIKKDHSKSQVFLKLNSLQTDDTATYYCAKGGYSLAHWGQGTLVTVSAAKTTAPSVYPLAPVCGDTTGSSVTLGCLVKGYFPEPVTLTWNSGSLSSGVHTFPAVLQSDLYTLSSSVTVTSSTWPSQSITCNVAHPASSTKVDKKIEPRGPTIKPCPPCKCPAPNLLGGPSVFIFPPKIKDVLMISLSPIVTCVVVDVSEDDPDVQISWFVNNVEVHTAQTQTHREDYNSTLRVVSALPIQHQDWMSGKEFKCKVNNKDLPAPIERTISKPKGSVRAPQVYVLPPPEEEMTKKQVTLTCMVTDFMPEDIYVEWTNNGKTELNYKNTEPVLDSDGSYFMYSKLRVEKKNWVERNSYSCSVVHEGLHNHHTTKSFSRTPGK
light: DIQMTQSPASLSVSVGETVTITCRASENIRSNLAWYQQKQGKSPQLLVNVATNLADGVPSRFSGSGSGTQYSLKINSLQSEDFGTYYCQHYWGTTWTFGGGTKLEIKRADAAPTVSIFPPSSEQLTSGGASVVCFLNNFYPKDINVKWKIDGSERQNGVLNSWTDQDSKDSTYSMSSTLTLTKDEYERHNSYTCEATHKTSTSPIVKSFNRNEC
notes: Murine hybridoma antibody; also called murine CD37-3 antibody; muCD37-3-PE
